Experimental data as given in patent publication US20170137511A1 (CALYPSO BIOTECH, published 2017).
Each block holds one binder with its values, some of them ahead of it.

Tests used:
[1] = target: T1, human IL-15 (preparation not stated) (human, UniProt P40933 49-162, limits assumed); experiment: ELISA
T1 construct: also called recombinant IL-15; recombinant human IL-15

[2] = target: T2, recombinant Macaque Monkey IL-15 (MyBiosource cat. no. MBS948894) (Rhesus macaque / Cynomolgus monkey, UniProt P40221 49-162 (Chlorocebus aethiops entry)); experiment: cell-based or functional assay
[3] = target: T3, recombinant human IL-15 (R&D systems cat. no. 247-IL) (human, UniProt P40933 49-162); experiment: cell-based or functional assay
[4] = target: T3, recombinant human IL-15 (R&D systems …); experiment: cell-based or functional assay; remark: listed apart in the source
[5] = target: T4, recombinant human IL-15 (Prospec cat no. CYT230) (human, UniProt P40933 49-162); experiment: ELISA, plate-bound human IL-15; printed as BC50 (half-maximal binding concentration)
Method: (§1) Maxisorp plates were coated with recombinant human IL-15 (Prospec cat no. CYT230) or Rhesus macaque IL-15 (MyBiosource cat. no. MBS948894) at 100 ng/well in carbonate coating buffer for 2 hours at 37° C. Since published sequences of Rhesus macaque and Cynomolgus monkey IL-15 are identical, such recombinant IL-15 protein was referred to as Macaque Monkey IL-15. Tested human IL-15 recombinant protein has a sequence identical to that provided in SEQ ID NO: 1 but with an additional methionine at the N-terminal position as usually done for expressing recombinant proteins in E. Coli. Tested recombinant Macaque Monkey IL-15 was produced in yeast and has a sequence identical to that provided in SEQ ID NO: 4 but with an additional N-terminal His tag.
(§2) The plate was then blocked with 2% normal goat serum for 30 min at 37° C. and washed 6 times with PBS-Tween (0.05% Tween-20 in PBS, v/v). Test antibodies were added to the plate in triplicate at various dilutions in PBS-Tween and the plate was incubated with gentle rocking at room temperature for 2 hours. The plate was then washed 6 times with PBS-Tween and an appropriate dilution of goat anti-human IgG antibody (Millipore cat. no. AP309P) conjugated to horseradish peroxidase (HRP) was added to the plate and left rocking at room temperature for 1 hour. The plate was then washed 6 times with PBS-Tween and incubated with TMB substrate. The reaction was stopped by the addition of 1M H₂SO₄ and read at 450 nm. Dose response curves of absorbance versus concentration were plotted and analyzed to determine half-maximal binding concentrations (BC₅₀) using the Graphpad Prism software. BC₅₀ values expressed as molarity were extrapolated from concentration in ng/ml using a 150 kDa molecular weight value for all antibodies.

[6] = target: T2, recombinant Macaque Monkey IL-15 …; experiment: ELISA, plate-bound Macaque Monkey IL-15; printed as BC50 (half-maximal binding concentration)
Method: as §1, §2

[7] = target: T4, recombinant human IL-15 (Prospec cat …); experiment: SPR (Biacore 3000), human IL-15 amine-coupled to the chip, antibody injected, 1:1 Langmuir fit
Method: Human IL-15 (Prospec cat no. CYT230) was immobilized onto a CMS chip (GE Healthcare) using standard amine coupling, and antibodies injected at various concentrations in 120 μl phosphate buffer saline with a flow rate of […]. Binding kinetics were analyzed on a Biacore 3000 apparatus (GE Healthcare) with a 300 seconds dissociation period. Reference signal and 0 nM antibody concentration signal were substracted and data fitted using a 1:1 (Langmuir) binding model.

[8] = target: T5, recombinant rat IL-15 (Sigma cat. no. SRP4172) (rat, UniProt P97604 49-162); experiment: ELISA, plate-bound recombinant rat IL-15 (100 ng/well), HRP goat anti-human IgG, absorbance at 450 nm
T5 sequence: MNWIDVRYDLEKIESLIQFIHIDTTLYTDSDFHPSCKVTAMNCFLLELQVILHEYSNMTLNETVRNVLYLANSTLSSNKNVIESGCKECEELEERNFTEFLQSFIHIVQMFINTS
Method: (§3) Maxisorp plates were coated with recombinant mouse IL-15 (R&D Systems cat. no. 447-ML) or rat IL-15 (Sigma cat. no. SRP4172) at 100 ng/well in carbonate coating buffer for 2 hours at 37° C. Tested IL-15 recombinant proteins have a sequence identical to that provided in SEQ ID NO: 2 (mouse IL-15) and SEQ ID NO: 3 (rat IL-15) but with an additional methionine at the N-terminal position as usually done for expressing recombinant proteins in E. Coli.
(§4) The plate was then blocked with 2% normal goat serum for 30 min at 37° C. and washed 6 times with PBS-Tween (0.05% Tween-20 in PBS, v/v). Test antibodies were added to the plate in triplicate at various dilutions in PBS-Tween and the plate was incubated with gentle rocking at room temperature for 2 hours. As positive controls, rabbit-anti-mouse IL-15 (Acris cat. no. AP01124PU-S) or rabbit anti-rat IL-15 (Biovision cat. no. 5172) antibodies were tested at the same concentrations. The plate was then washed 6 times with PBS-Tween and an appropriate dilution of HRP-conjugated goat anti-human IgG antibody (Millipore cat. no. AP309P) for humanized antibodies, or goat-anti-rabbit IgG antibody (Sigma cat. no. A 4416) for the positive controls was added and the plate was left rocking at room temperature for 1 hour. The plate was then washed 6 times with PBS-Tween and incubated with TMB substrate. The reaction was stopped by the addition of 1M H₂SO₄ and read at 450 nm. Dose response curves of absorbance versus concentration were plotted using the Graphpad Prism software.

[9] = target: T6, recombinant mouse IL-15 (R&D Systems cat. no. 447-ML) (mouse, UniProt P48346 49-162); experiment: ELISA, plate-bound recombinant mouse IL-15 (100 ng/well), HRP goat anti-human IgG, absorbance at 450 nm
T6 sequence: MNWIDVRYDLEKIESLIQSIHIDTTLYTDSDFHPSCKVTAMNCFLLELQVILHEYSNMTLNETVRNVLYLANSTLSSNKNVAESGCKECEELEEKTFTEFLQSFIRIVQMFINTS
Method: as §3, §4

T4 sequence (P40933 other isoform, or with tags, fused parts or gaps): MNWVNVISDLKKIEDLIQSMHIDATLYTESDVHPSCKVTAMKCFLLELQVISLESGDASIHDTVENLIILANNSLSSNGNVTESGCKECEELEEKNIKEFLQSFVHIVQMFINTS
T1 sequence (P40933 49-162 limits assumed): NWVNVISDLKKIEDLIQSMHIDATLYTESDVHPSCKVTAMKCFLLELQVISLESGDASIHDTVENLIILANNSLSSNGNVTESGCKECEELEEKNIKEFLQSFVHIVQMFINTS
T3 sequence (P40933 49-162 limits assumed): as above
T2 sequence (P40221 49-162): as the sequence (P40933 49-162 limits assumed) above, with L52H, A57T, S58D, S73I, V80I counted along it

binding result [1]: binds
B1: cVH1:cVK1 (antibody, human IgG1, kappa, V domains shown)
VH: EVRLMASGGGLVKPGGSLKLSCAASEFTFSNYAMSWVRQTPEKRLEWVATISRGGDYTYYPDSVKGRFTISRDNAKNTLYLQMSSLRSEDTALYYCARRVSMITGGWAMDYWGQGTSVTVSS
VL: DVLMTQTPLSLPVSLGDQASISCRSSQSIVDITGNTYLEWYLQKPGQSPKLLIYKVFNRFSGVPDRFSGSGSGTDFTLKISRVEAEDLGLYYCFQDSFVPYTFGGGTKLEIKR
notes: Mouse B-E29 variable regions on human IgG1 (G1m3) / kappa (Km3); also called chimeric B-E29

binding result [1]: binds
B2: cVH1:hVK1 (antibody, human IgG1, kappa, V domains shown)
VH: EVRLMASGGGLVKPGGSLKLSCAASEFTFSNYAMSWVRQTPEKRLEWVATISRGGDYTYYPDSVKGRFTISRDNAKNTLYLQMSSLRSEDTALYYCARRVSMITGGWAMDYWGQGTSVTVSS
VL: DVVMTQSPLSLPVTLGQPASISCRSSQSIVDITGNTYLEWYQQRPGQSPRLLIYKVFNRFSGVPDRFSGSGSGTDFTLKISRVEAEDVGVYYCFQDSFVPYTFGQGTKLEIKR
notes: Human IgG1 (G1m3) / kappa (Km3)

binding result [1]: binds
B3: hVH1:cVK1 (antibody, human IgG1, kappa, V domains shown)
VH: EVRLMASGGGLVQPGGSLRLSCAASEFTFSNYAMSWVRQAPGKGLEWVATISRGGDYTYYPDSVKGRFTISRDNSKNTLYLQMNSLRAEDTAVYYCARRVSMITGGWAMDYWGQGTLVTVSS
VL: DVLMTQTPLSLPVSLGDQASISCRSSQSIVDITGNTYLEWYLQKPGQSPKLLIYKVFNRFSGVPDRFSGSGSGTDFTLKISRVEAEDLGLYYCFQDSFVPYTFGGGTKLEIKR
notes: as for B2

IC50 in Kit 225 cells (nM), Macaque Monkey IL-15 [2]: 26.7 nM
IC50 in M-07e cells (nM), Macaque Monkey IL-15 [2]: 10.4 nM
IC50 in Kit 225 cells (nM), Human IL-15 [3]: 29.3 nM
IC50 in M-07e cells (nM), Human IL-15 [3]: 19.1 nM
IC50 in M07e cells for IL-15 trans presentation [4]: 0.65 nM
EC50 [5]: 0.647 nM
EC50 [6]: 0.113 nM
Kd [7]: 0.329 nM
koff [7]: 0.000574 s⁻¹
kon [7]: 1.75e+06 M⁻¹ s⁻¹
B4: huB-E29-24 (antibody, human IgG1, kappa, V domains shown)
VH: EVQLVESGGGLVQPGGSLRLSCAASEFTFSNYAMSWVRQAPGKGLEWVATISRGGDYTYYPDSVKGRFTISRDNSKNTLYLQMNSLRAEDTAVYYCARRVSMITGGYAMDYWGQGTLVTVSS
VL: DVVMTQSPLSLPVTLGQPASISCRSSQSIVDITGNTYLEWYQQRPGQSPRLLIYKVFNRFSGVPDRFSGSGSGTDFTLKISRVEAEDVGVYYCFQDSFVPYTFGQGTKLEIKR
notes: Humanized B-E29 variant; human IgG1 (G1m3) / kappa (Km3), produced in CHO cells; also called huVH18/huVL1
binding result [8]: no binding (tested: log 3.7 (about 5000 ng/mL))
binding result [9]: no binding (tested: log 3.7 (about 5000 ng/mL))
